{
  "source": "patent US20210115135A1",
  "about": "(ZHEJIANG SHIMAI PHARMACEUTICAL, published 2021)",
  "binders": {"B1": {"name": "DNV2 Fab (Fab, V domains shown)", "VH": "EVQLVQSGAEVKKPGASVKVSCKASGGTFSSYTISWVRQAPGQGLEWMGGIIPIFGTANYAQKFQGRVTITADKSTSTAYMELSSLRSEDTAVYYCARDPVFDYWGQGTLVTVSS", "VL": "DIQLTQSPSSLSASVGDRVTITCRASQNIGTYLNWYQQKPGKAPKLLIYAASSLQSGVPSRFSGSGSGTDFTLTISSLQPEDFATYYCQQLNSYPITFGQGTRLEIK", "notes": "Human Fab from a phage library, hexahistidine-tagged, detected through a FLAG tag, made in E. coli HB2151"}, "B2": {"name": "DNV7 Fab (Fab, V domains shown)", "VH": "EVQLVESGAEVKKPGSSVKVSCKASGGTFSSYAISWVRQAPGQGLEWMGGIIPIFGTANYAQKFQGRVTITADKSTSTAYMELSSLRSEDTAVYYCALDGKSGFDLAFDIWGQGTMVTVSS", "VL": "DIQLTQSPSSLSASVGDRVTITCRASRRISSYLNWYQQKQGKAPQLLIYAASSLQSGVPSRFSGSGSGTEFTLTISSLQPEDFATYYCQQFNSYPLTFGGGTKVEIK", "notes": "as for B1"}, "B3": {"name": "DNV3 IgG4 (antibody)", "heavy": "not shown", "light": "QSVLTQPPSVSAAPGQKVTISCSGSTSNIAINYVSWYQQVPGTVPKLLIYDDDKRPSGIPDRFSGSKSGTSATLDISGLQTGDEAHYYCGVWDNSLLAVLFGGGTSLTVLGQPKAAPSVTLFPPSSEELQANKATLVCLISDFYPGAVTVAWKADSSPVKAGVETTTPSKQSNNKYAASSYLSLTPEQWKSHRSYSCQVTHEGSTVEKTVAPTECS", "notes": "Human IgG4 made in 293FS cells; also called original DNV3 IgG4"}, "B4": {"name": "DNV3 IgG1 (antibody)", "heavy": "not shown", "light": "B3 light", "notes": "Human IgG1 made in 293FS cells"}, "B5": {"name": "DNV4 Fab (Fab, V domains shown)", "VH": "EVQLVQSGAEVKKPGSSVKVSCKASGGTFSSYAISWVRQAPGQGLEWMGGIIPIFGTANYAQKFQGRVTITADESTSTAYMELSSLRSEDTAVYYCAREKPTGGYYGMDVWGKGTLVTVSS", "VL": "not shown", "notes": "as for B1"}},
  "key": {"[1]": {"molecular_target": "T1, recombinant human LAG3 (Sino Biological Inc.) (human, UniProt P18627 23-450)", "T1 construct": "Bought recombinant protein; also called CD223; biotinylated recombinant human LAG3", "T1 sequence (looked up)": "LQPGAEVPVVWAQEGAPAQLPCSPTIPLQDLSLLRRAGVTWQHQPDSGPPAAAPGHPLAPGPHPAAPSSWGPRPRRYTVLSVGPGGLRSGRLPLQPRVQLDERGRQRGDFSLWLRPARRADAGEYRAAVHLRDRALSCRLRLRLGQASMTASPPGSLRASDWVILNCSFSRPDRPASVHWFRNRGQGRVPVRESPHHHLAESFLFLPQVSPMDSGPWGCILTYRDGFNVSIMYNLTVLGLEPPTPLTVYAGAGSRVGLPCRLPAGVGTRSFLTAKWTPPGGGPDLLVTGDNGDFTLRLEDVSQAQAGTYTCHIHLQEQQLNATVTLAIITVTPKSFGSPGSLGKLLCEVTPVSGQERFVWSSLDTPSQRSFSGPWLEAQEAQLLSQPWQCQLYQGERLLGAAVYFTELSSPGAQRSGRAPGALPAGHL", "test": "phage panning and monoclonal phage ELISA on recombinant human LAG3", "method": "We have recently constructed a large (size, 10¹¹) phage-display naïve human Fab library with peripheral blood B cells from about 30 healthy individuals according to the previously published protocols (de Haard et al., J Biol Chem 1999, 274: 18218-18230). This library was used for selection of antibodies against recombinant human LAG3 conjugated to magnetic beads (Dynabeads M-270 epoxy; DYNAL Inc.) as described previously (Zhu et al., J Virol 2006, 80:891-899) except that we used 5, 1 and 0.1 μg of antigen in the first, second and third round of panning, respectively. Clones that bound to the antigen were identified from the third round of biopanning by using monoclonal phage ELISA as described (Zhu et al., J Virol 2006, 80:891-899)."}, "[2]": {"molecular_target": "T2, LAG3 of the Promega LAG3-MHCII Blockade Bioassay Kit (Cat. No.: CS194802) (UniProt P18627 23-525, limits assumed)", "T2 sequence (looked up)": "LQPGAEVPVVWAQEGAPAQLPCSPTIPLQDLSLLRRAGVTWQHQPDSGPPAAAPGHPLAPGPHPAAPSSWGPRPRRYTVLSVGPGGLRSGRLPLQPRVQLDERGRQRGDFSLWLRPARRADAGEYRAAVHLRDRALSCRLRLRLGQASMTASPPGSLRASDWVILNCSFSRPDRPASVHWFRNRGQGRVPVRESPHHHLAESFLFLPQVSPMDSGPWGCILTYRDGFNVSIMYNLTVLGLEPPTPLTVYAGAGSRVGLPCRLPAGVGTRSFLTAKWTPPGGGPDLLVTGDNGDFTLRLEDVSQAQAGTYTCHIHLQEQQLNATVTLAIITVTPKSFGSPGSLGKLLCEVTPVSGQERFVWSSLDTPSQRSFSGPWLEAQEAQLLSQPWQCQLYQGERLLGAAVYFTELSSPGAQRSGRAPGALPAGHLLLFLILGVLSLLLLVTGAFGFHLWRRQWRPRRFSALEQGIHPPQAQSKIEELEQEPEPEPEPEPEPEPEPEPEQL", "test": "cell-based or functional assay"}, "[3]": {"molecular_target": "T1, recombinant human LAG3 (Sino Biological …)", "test": "ELISA, recombinant human LAG3 coated, IgG detected by anti-human IgG (Fc-specific)-HRP", "method": "ELISA was performed according to standard protocols. Briefly, recombinant human LAG3 (Sino Biological Inc.) was coated on Corning EIA/RIA high-binding 96-well plates (Corning Inc.) at 50 ng per well overnight at 4° C. and blocked with 3% nonfat milk in PBS (pH7.4). Fivefold serially diluted antibodies were added and incubated at room temperature for 2 h. The plates were washed with PBS containing 0.05% Tween 20. Bound Fab and IgG antibodies were detected by HRP-conjugated anti-FLAG tag antibody and HRP-conjugated anti-human IgG (Fe-specific) antibody (Sigma-Aldrich), respectively. The assay was developed at room temperature with TMB substrate (Sigma-Aldrich) and monitored at 450 nm with a microplate reader. The half-maximal binding (EC₅₀) was calculated by fitting the data to the Langmuir adsorption isotherm. DNV3 IgG1 and IgG4 were cloned into the plasmid vectors pDin1 and pDin4, respectively. They were expressed and purified from transiently transfected 293 freestyle cell cultures with a yield of […]. In ELISA, both DNV3 IgG1 and IgG4 bound to recombinant human LAG3 with an EC₅₀ of approximately 0.5 nM (FIG. 5)."}},
  "data": [
    {"binder": "B1", "values": [
      {"measurement": "binding result", "setting": "[1]", "result": "binds"}
    ]},
    {"binder": "B2", "values": [
      {"measurement": "binding result", "setting": "[1]", "result": "binds"}
    ]},
    {"binder": "B3", "values": [
      {"measurement": "T cell activation, EC50", "setting": "[2]", "result": 8.7, "unit": "nM"},
      {"measurement": "EC50", "setting": "[3]", "result": "~0.5", "unit": "nM"}
    ]},
    {"binder": "B4", "values": [
      {"measurement": "EC50", "setting": "[3]", "result": "~0.5", "unit": "nM"}
    ]},
    {"binder": "B5", "values": [
      {"measurement": "binding result", "setting": "[1]", "result": "binds"}
    ]}
  ]
}
